# How the values were obtained:
# [1] = Stability of PGC-C18-GLP-1 formulation at 37°C; assay type: physicochemical; conditions: GLP-1 without PGC-C18, liquid, 100mM glycine pH 6.8, 2mg/ml GLP-1, 37°C, total GLP-1 peak by reverse phase HPLC
# Appearance = assay type: physicochemical; conditions: GLP-1 1mg/ml in neutral solution
# DPP IV = conditions: read-out: Km of DPP IV for GLP-1; cited from earlier work
# Porcine kidney DPP IV = Porcine kidney DPP IV (Sus scrofa, UniProt P22411); assay: DPP IV degradation of GLP-1 in the presence or absence of PGC or PGC-C18; assay type: in vitro ADME; conditions: 24 hours, 37°C, reverse phase HPLC, mean +/−SD, n=6
# Porcine kidney DPP IV, sequence (P22411 whole entry): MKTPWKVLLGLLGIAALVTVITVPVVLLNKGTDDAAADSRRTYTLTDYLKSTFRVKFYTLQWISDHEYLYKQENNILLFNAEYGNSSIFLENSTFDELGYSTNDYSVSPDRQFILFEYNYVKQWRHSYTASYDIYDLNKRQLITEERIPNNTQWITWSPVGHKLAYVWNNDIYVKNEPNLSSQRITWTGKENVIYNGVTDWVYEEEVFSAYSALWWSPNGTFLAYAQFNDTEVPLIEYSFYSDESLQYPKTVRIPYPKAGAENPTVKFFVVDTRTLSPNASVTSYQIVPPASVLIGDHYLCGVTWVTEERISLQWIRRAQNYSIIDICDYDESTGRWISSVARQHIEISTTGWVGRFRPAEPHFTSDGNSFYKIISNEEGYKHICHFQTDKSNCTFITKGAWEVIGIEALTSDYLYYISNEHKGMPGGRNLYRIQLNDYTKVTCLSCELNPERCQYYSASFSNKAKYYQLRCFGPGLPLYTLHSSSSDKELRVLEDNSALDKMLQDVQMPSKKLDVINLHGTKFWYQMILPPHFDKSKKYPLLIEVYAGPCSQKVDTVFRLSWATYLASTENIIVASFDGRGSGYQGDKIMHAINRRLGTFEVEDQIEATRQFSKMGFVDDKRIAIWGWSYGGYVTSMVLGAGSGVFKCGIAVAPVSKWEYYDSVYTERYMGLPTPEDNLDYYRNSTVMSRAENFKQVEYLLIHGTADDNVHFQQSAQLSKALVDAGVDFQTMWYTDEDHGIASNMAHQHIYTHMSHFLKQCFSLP
substance,measurement,setting,value
Glucagon-like peptide-1 [GLP-1],GLP-1 broken down within a month,[1],greater than 10%
same,appearance of solution when heated to 50°C,Appearance; 50°C,quite clear
same,appearance of solution as it cools down to room temperature,Appearance; cooled from 50°C to room temperature,turns cloudy and less soluble
same,Km,DPP IV,36 µM
same,GLP-1 degraded by DPP IV in the presence of the carrier PGC-C18,"Porcine kidney DPP IV; 1mg/ml GLP-1 + 10mg/ml PGC-C18 (1:10 w/w), PBS pH 7.4, 1.25mU/mL DPP IV",26+/−2%
same,"GLP-1 degraded by DPP IV, without any carrier","Porcine kidney DPP IV; 1mg/ml GLP-1, PBS pH 7.4, 1.25mU/mL DPP IV",58+/−5%

# Reference: article PMC3247650 (Pharmaceutical research, 2011)
